Results taken from patent publication US20220306759A1 (CYTOMX THERAPEUTICS, published 2022).
Where a chain is given by its changes, count along the chain named. Each block holds one binder with its values, some of them ahead of it.

Key:
[1] = target: T1, human CD71 (transferrin receptor protein 1, TfR1) on human cell lines (human, UniProt P02786 1-760); assay: FACS on MDA MB 231 cells
T1 construct: whole, on cells; also called huCD71
Protocol: (§1) In this study, the binding of the antibodies of the present disclosure to the indicated cell lines were performed using a standard FACS labelling method.

[2] = target: T1, human CD71 (transferrin receptor …); assay: FACS on H292 cells
Protocol: as §1

[3] = target: T1, human CD71 (transferrin receptor …); assay: FACS on HCC1806 cells
Protocol: as §1

[4] = target: T1, human CD71 (transferrin receptor …); assay: FACS on BxPC3 cells
Human CD71-His6 = target: T2, Human CD71-His6 (human, UniProt P02786 89-760, limits assumed); assay: BLI (Octet), CD71-His6 on Ni-NTA, Fab in solution
T2 construct: immobilized on Ni-NTA substrate (Octet); also called recombinant human CD71 protein with hexa-histidine tag
T2 sequence (P02786 other isoform, or with tags, fused parts or gaps limits assumed): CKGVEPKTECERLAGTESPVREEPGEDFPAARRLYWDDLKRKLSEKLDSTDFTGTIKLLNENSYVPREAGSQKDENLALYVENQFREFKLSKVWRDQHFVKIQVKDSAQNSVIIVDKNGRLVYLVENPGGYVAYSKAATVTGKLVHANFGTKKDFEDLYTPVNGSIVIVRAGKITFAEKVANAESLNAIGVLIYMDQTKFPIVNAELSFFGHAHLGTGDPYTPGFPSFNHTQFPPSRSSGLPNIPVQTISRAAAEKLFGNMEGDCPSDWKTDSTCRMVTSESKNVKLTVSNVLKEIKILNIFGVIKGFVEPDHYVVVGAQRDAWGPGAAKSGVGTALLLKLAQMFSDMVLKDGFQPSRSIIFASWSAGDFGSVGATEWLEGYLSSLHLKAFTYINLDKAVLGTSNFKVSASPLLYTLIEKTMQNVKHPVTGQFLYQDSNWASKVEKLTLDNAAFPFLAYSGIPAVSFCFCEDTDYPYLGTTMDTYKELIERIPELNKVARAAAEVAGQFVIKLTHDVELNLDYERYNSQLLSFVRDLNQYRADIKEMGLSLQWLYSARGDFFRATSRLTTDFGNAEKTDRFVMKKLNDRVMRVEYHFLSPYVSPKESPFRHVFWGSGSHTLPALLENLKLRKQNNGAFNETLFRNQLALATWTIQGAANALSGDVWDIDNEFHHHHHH
From the text: (§2) The recombinant CD71 proteins included a hexa-histidine (His6) peptide tag, by which the protein was immobilized to a Ni-NTA (nitrilotriacetic acid)-containing substrate.

Cyno CD71-His6 = target: T3, Cyno CD71-His6 (cynomolgus monkey, UniProt H9EXL1 89-760 (rhesus entry)); assay: BLI (Octet), CD71-His6 on Ni-NTA, Fab in solution
T3 construct: immobilized on Ni-NTA substrate (Octet); also called recombinant cynomolgus CD71 protein with hexa-histidine tag
T3 sequence (chain, as listed by the source): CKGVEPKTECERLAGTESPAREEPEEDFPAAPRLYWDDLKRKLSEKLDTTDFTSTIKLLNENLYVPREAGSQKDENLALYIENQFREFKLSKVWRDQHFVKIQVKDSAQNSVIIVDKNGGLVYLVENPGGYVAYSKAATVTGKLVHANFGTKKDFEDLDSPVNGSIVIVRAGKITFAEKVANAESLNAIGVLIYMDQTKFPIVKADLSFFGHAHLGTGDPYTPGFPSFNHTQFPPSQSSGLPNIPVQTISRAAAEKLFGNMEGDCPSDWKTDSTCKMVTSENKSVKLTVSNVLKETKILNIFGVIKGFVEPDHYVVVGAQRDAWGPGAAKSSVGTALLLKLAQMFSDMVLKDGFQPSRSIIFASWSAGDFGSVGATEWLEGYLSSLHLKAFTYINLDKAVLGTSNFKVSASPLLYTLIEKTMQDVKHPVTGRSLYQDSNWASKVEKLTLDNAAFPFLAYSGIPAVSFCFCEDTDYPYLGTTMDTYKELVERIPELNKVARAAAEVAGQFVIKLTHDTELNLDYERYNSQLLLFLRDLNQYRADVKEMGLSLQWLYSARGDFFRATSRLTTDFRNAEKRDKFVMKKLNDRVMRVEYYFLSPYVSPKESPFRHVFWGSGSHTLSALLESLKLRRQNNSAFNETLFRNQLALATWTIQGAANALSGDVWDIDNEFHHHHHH
From the text: as §2

[5] = target: T4, recombinant human CD71 protein (human, UniProt P02786 89-760); assay: ELISA, 1 µg/mL recombinant human CD71, uncleaved
T4 construct: also called recombinant CD71
T4 sequence (P02786 89-760 limits assumed): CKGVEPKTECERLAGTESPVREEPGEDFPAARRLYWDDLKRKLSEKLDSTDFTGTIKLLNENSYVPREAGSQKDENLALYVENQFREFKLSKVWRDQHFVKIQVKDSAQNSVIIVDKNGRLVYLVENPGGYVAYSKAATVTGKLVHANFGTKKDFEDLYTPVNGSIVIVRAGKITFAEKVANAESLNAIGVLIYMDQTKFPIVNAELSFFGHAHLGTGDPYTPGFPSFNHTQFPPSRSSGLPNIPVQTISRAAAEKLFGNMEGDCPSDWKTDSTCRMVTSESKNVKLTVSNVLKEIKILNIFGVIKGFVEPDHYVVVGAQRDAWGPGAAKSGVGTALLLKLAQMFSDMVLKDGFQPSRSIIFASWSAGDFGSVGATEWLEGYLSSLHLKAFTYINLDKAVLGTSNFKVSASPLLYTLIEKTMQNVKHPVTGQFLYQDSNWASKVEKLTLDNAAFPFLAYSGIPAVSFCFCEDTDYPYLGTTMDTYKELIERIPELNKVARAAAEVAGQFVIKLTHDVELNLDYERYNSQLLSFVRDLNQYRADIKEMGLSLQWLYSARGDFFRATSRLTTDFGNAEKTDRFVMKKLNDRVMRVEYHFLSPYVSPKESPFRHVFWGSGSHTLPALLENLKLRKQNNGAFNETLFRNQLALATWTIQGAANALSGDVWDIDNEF
Protocol: (§3) The amount of bound antibody was detected by incubation and detection by goat anti-human antibody conjugated to horseradish peroxidase and Ultra TMB (Thermo Fisher Scientific) detection.

[6] = target: T1, human CD71 (transferrin receptor …); assay: FACS on H292 cells, uncleaved
Protocol: In this study, the binding of the antibodies of the present disclosure to the indicated cell lines were performed using a standard FACS labelling method. […] These activatable antibodies include the light chain of the correspondingly named sequence listed above in Table C. The cells were labeled with the indicated test article at the indicated concentrations and subsequently detected with an Alexa Fluor 647 labeled goat anti-human IgG secondary antibody.

[7] = target: T4, recombinant human CD71 protein; assay: ELISA; Kd against CD71 21.12
Protocol: as §3

[8] = target: T4, recombinant human CD71 protein; assay: ELISA, 1 µg/mL CD71, uncleaved
Protocol: as §3

T1 sequence (P02786 whole entry): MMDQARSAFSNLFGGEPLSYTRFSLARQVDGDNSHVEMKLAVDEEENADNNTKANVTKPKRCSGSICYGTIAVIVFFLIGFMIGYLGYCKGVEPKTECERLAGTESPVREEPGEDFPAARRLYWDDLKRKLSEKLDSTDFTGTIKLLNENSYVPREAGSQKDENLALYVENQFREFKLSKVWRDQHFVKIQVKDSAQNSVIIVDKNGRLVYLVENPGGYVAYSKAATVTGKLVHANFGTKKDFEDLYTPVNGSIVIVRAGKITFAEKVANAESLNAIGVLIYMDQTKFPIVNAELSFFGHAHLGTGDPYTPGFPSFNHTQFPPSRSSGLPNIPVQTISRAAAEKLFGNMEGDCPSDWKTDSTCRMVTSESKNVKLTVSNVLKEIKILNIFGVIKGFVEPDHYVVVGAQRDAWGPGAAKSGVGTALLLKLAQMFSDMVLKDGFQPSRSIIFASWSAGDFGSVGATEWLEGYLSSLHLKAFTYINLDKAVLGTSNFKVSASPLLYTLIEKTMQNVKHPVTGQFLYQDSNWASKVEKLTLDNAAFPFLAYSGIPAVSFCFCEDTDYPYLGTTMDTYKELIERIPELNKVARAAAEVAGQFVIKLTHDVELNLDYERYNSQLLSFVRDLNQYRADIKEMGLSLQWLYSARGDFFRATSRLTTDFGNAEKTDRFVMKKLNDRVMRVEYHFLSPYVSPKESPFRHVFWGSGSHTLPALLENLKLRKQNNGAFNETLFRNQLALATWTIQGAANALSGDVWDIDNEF

B3: CD71 Ab 21.12-vc-MMAE (antibody, human IgG1, kappa)
heavy: not shown
light: DIQMTQSPSSLSASVGDRVTITCSASSSVYYMYWFQQKPGKAPKLWIYSTSNLASGVPSRFSGSGSGTDYTLTISSMQPEDFATYYCQQRRNYPYTFGQGTKLEIKRTVAAPSVFIFPPSDEQLKSGTASVVCLLNNFYPREAKVQWKVDNALQSGNSQESVTEQDSKDSTYSLSSTLTLSKADYEKHKVYACEVTHQGLSSPVTKSFNRGEC
modifications: vc-MMAE conjugated to the antibody; chain and residues not stated
notes: antibody drug conjugate of Ab21.12
Bmax (MFI) [2]: 1600 MFI | Kd [2]: 1.33 nM | Kd [3]: 6.4 nM

B4: Ab21.10 LcB:HcA (antibody, V domains shown)
VH: QVQLVQSGAEVKKPGASVKVSCKASGYTFTSYWMHWVRQAPGQGLEWMGAIYPGNSETGYAQKFQGRVTMTRDTSTSTVYMELSSLRSEDTAVYYCARENWDPGFAFWGQGTLVTVSS
VL: DIQMTQSPSSLSASVGDRVTITCSASSSVYYMYWFQQKPGKAPKLWIYSTSNLASGVPSRFSGSGSGTDYTLTISSMQPEDFATYYCQQRRNYPYTFGQGTKLEIK
notes: humanized; detected with anti-human IgG; also called huCD71 Ab21.10
binding result [4]: binds

B5: anti-CD71 Fab fragment (papain digest of anti-CD71 21.12) (Fab, V domains shown)
VH: B4 VH with V20M, M48I, V68A, M70L, R72A, V79A, A97T, V114I
VL: DIQMTQSPSSLSASVGDRVTITCSASSSVYYMYWFQQKPGKAPKLWIYSTSNLASGVPSRFSGSGSGTDYTLTISSMQPEDFATYYCQQRRNYPYTFGQGTKLEIKR
Kd (Human CD71-His6): 14 nM | koff (Human CD71-His6): 0.00398 s⁻¹ | kon (Human CD71-His6): 664000 M⁻¹ s⁻¹ | Kd (Cyno CD71-His6): 6 nM | koff (Cyno CD71-His6): 0.00559 s⁻¹ | kon (Cyno CD71-His6): 390000 M⁻¹ s⁻¹

B7: CD71 TF02.13-3001-PEG2-vc-MMAD (antibody, human IgG1, kappa)
heavy: not shown
light: QGQSGQGNLCTEHSAALDCRSYGGGSSGGSAVGLLAPPGGLSGRSDNHGGSDIQMTQSPSSLSASVGDRVTITCSASSSVYYMYWFQQKPGKAPKLWIYSTSNLASGVPSRFSGSGSGTDYTLTISSMQPEDFATYYCQQRRNYPYTFGQGTKLEIKRTVAAPSVFIFPPSDEQLKSGTASVVCLLNNFYPREAKVQWKVDNALQSGNSQESVTEQDSKDSTYSLSSTLTLSKADYEKHKVYACEVTHQGLSSPVTKSFNRGEC
modifications: PEG2-vc-MMAD conjugated to the antibody; chain and residues not stated
Kd [1]: 52.6 nM

B9: CD71 TF02.13-3001-spdb-DM4 (antibody, human IgG1, kappa)
heavy: not shown
light: B7 light
modifications: spdb-DM4 conjugated to the antibody; chain and residues not stated
Kd [1]: 46.9 nM | Kd [3]: ~200 nM

B10: anti-human CD71 TF02.13-3011 activatable antibody (antibody, human IgG1, kappa)
heavy: not shown
light: B7 light with H48P
Kd [5]: 0.778 nM | Kd [6]: 67.4 nM

B11: anti-human CD71 TF02.13-3008 activatable antibody (antibody, human IgG1, kappa)
heavy: not shown
light: B7 light with N47Q
Kd [5]: 2.61 nM | Kd [6]: 97.8 nM

B14: CD71 TF02.13-2001-spdb-DM4 (antibody, human IgG1, kappa)
heavy: not shown
light: QGQSGQGNLCTEHSAALDCRSYGGGSSGGSISSGLLSGRSDNHGGGSDIQMTQSPSSLSASVGDRVTITCSASSSVYYMYWFQQKPGKAPKLWIYSTSNLASGVPSRFSGSGSGTDYTLTISSMQPEDFATYYCQQRRNYPYTFGQGTKLEIKRTVAAPSVFIFPPSDEQLKSGTASVVCLLNNFYPREAKVQWKVDNALQSGNSQESVTEQDSKDSTYSLSSTLTLSKADYEKHKVYACEVTHQGLSSPVTKSFNRGEC
modifications: spdb-DM4 conjugated to the antibody; chain and residues not stated
Kd [3]: ~200 nM

B16: anti-human CD71 TF02.13-2007 activatable antibody (antibody, human IgG1, kappa)
heavy: not shown
light: B14 light with N42I
Kd [6]: 70.3 nM

B18: anti-human CD71 TF02.13-2011 activatable antibody (antibody, human IgG1, kappa)
heavy: not shown
light: B14 light with H43P
Kd [5]: 4.27 nM | Kd [6]: 57.1 nM

B21: anti-human CD71 TF01-2001 activatable antibody (antibody, human IgG1, kappa)
heavy: not shown
light: QGQSGQGQFCPWSYYLIGDCDIGGGSSGGSISSGLLSGRSDNHGGGSDIQMTQSPSSLSASVGDRVTITCSASSSVYYMYWFQQKPGKAPKLWIYSTSNLASGVPSRFSGSGSGTDYTLTISSMQPEDFATYYCQQRRNYPYTFGQGTKLEIKRTVAAPSVFIFPPSDEQLKSGTASVVCLLNNFYPREAKVQWKVDNALQSGNSQESVTEQDSKDSTYSLSSTLTLSKADYEKHKVYACEVTHQGLSSPVTKSFNRGEC
notes: also called huCD71 TF01-2001
ME (masking efficiency) [7]: 500 fold | Kd [8]: 70 nM

The remaining lines, values ahead:

Kd [1]: 1.47 nM
B1: CD71 Ab21.12-PEG2-vc-MMAD (antibody, human IgG1, kappa)
heavy: not shown
light: B3 light
modifications: PEG2-vc-MMAD conjugated to the antibody; chain and residues not stated
notes: as for B3

Kd [1]: 1.24 nM
B2: CD71 Ab 21.12-spdb-DM4 (antibody, human IgG1, kappa)
heavy: not shown
light: B3 light
modifications: spdb-DM4 conjugated to the antibody; chain and residues not stated
notes: as for B3

Kd [5]: 2.21 nM | Kd [6]: 86.7 nM
B6: anti-human CD71 TF02.13-3007 activatable antibody (antibody, human IgG1, kappa)
heavy: not shown
light: B7 light with N47I

Bmax (MFI) [2]: 1850 MFI | Kd [2]: 53.8 nM
B8: CD71 TF02.13-3001-vc-MMAE (antibody, human IgG1, kappa)
heavy: not shown
light: B7 light
modifications: vc-MMAE conjugated to the antibody; chain and residues not stated

Kd [4]: ~3 nM
B12: anti-CD71 M21 monoclonal antibody (antibody, V domains shown)
VH: EVQLQESGTVLARPGASVKMSCKASGYTFTSYWMHWVKQRPGQGLEWIGAIYPGNSETGYNQNFKGKAKLTAVTSASTAYMDLSSLTNEDSAVYYCTRENWDPGFAFWGQGTLITVSA
VL: DIVMTQTPAIMSASPGEKVTITCSASSSVYYMYWFQQKPGTSPKLWIYSTSNLASGVPVRFSGSGSGTSYSLTISRMEAEDAATYYCQQRRNYPYTFGGGTKLEIKR
notes: mouse monoclonal antibody from hybridoma; also called muM21; Mab21

ME (masking efficiency) [7]: 153 fold | Kd [8]: 21.4 nM
B13: anti-human CD71 TF02-2001 activatable antibody (antibody, human IgG1, kappa)
heavy: not shown
light: B14 light with A15F

Kd [5]: 1.64 nM | Kd [6]: 39.1 nM
B15: anti-human CD71 TF02.13-2012 activatable antibody (antibody, human IgG1, kappa)
heavy: not shown
light: B14 light with D41A, H43P

Kd [5]: 15.1 nM | Kd [6]: 90 nM
B17: anti-human CD71 TF02.13-2008 activatable antibody (antibody, human IgG1, kappa)
heavy: not shown
light: B14 light with N42Q

Kd [5]: 3.25 nM | Kd [6]: 70.3 nM
B19: anti-human CD71 TF02.13-2013 activatable antibody (antibody, human IgG1, kappa)
heavy: not shown
light: B14 light with D41A, H43I

Kd [5]: 4.91 nM | Kd [6]: 78.3 nM
B20: anti-human CD71 TF02.13-3013 activatable antibody (antibody, human IgG1)
heavy: not shown
VL: QGQSGQGNLCTEHSAALDCRSYGGGSSGGSAVGLLAPPGGLSGRSANIGGSDIQMTQSPSSLSASVGDRVTITCSASSSVYYMYWFQQKPGKAPKLWIYSTSNLASGVPSRFSGSGSGTDYTLTISSMQPEDFATYYCQQRRNYPYTFGQGTKLEIK
notes: without spacer 851
